From patent US20240034813A1 (Janssen / Centocor, published 2024)

Key:
[1] = target: T1, recombinant human EGFR/ErbB1/HER1 with C-terminal His tag, Cy5-labeled (human, UniProt P00533 25-645, Cy5 label (reacted with Cy5 Mono NHS Ester; sites not stated)); assay: competitive TR-FRET (Eu-amivantamab/Cy5-EGFR), EC50 ratio vs Reference Material; Ex. 2 Formulation 1 (10 mM histidine), T0, 5 C table
T1 construct: Commercial protein; also called Cy5-EGFR; Cy5-labeled EGFR antigen; not shown: C-terminal His tag
From the text: (§1) In this procedure, varying concentrations of unlabeled bispecific EGFR-cMet antibody sample compete with donor fluorophore (Europium (Eu) chelate) labeled bispecific EGFR-cMet antibody for binding to an acceptor fluorophore (Cy5)-labeled EGFR antigen. Excitation of the donor fluorophore results in a transfer of energy to the bound acceptor fluorophore (FRET process). The resultant FRET is detected by emission of light at 665 nm using a microplate reader capable of measuring time-resolved fluorescence. Sample dose response curves are compared to the RM.
(§2) EGFR Binding Materials and Methods. Certified commercial EGFR, a recombinant human EGFR/ErbB1/HER1 with C-terminal His tag is reacted with certified commercial Cy5 Mono NHS Ester to produce Cy5-labeled EGFR. Validated bispecific EGFR-cMet antibody is reacted with certified commercial Europium (Eu) chelate to produce Eu-labeled bispecific EGFR-cMet antibody. […] Fluorescence is then measured by spectrophotometry at 665 nm, plotted against antibody concentration and analyzed by a four-parameter logistic model. The antibody concentration required to obtain half of the maximum fluorescence response (EC50) is determined for RM, assay control and samples. The potencies of assay control and samples are calculated based on the ratio of the sample (or control) and RM EC50 values and reported as a percentage activity relative to the RM.

[2] = target: T2, recombinant cMet/HGFR with c-terminal His-tag, Cy5-labeled (UniProt P08581 25-932, limits assumed, Cy5 label (reacted with Cy5 Mono NHS Ester; sites not stated)); assay: competitive TR-FRET (Eu-amivantamab/Cy5-c-MET), EC50 ratio vs Reference Material; Ex. 11 drug product, 9 months at 5 C
T2 construct: Commercial protein; also called Cy5-c-MET; Cy5-labeled c-MET antigen; not shown: C-terminal His-tag
From the text: (§3) In this procedure, varying concentrations of unlabeled bispecific EGFR-cMet antibody sample compete with donor fluorophore (Europium (Eu) chelate) labeled bispecific EGFR-cMet antibody for binding to an acceptor fluorophore (Cy5)-labeled c-MET antigen. Excitation of the donor fluorophore results in a transfer of energy to the bound acceptor fluorophore (FRET process). The resultant FRET is detected by emission of light at 665 nm using a microplate reader capable of measuring time-resolved fluorescence. Sample dose response curves are compared to the Reference Material (RM).
as §2, with “c-MET Binding” for “EGFR Binding”, “commercial cMet,” for “commercial EGFR,”, “recombinant cMet/HGFR” for “recombinant human EGFR/ErbB1/HER1”, “with c-terminal His-tag” for “with C-terminal His tag”, “Cy5-labeled c-MET.” for “Cy5-labeled EGFR.”, “produce Eu labeled” for “produce Eu-labeled”

[3] = target: T2, recombinant cMet/HGFR with c-terminal …; assay: competitive TR-FRET (Eu-amivantamab/Cy5-c-MET), EC50 ratio vs Reference Material; Ex. 12 drug product with rHuPH20, 0 months, 25 C table
From the text: as §3
as §2, with “c-MET Binding” for “EGFR Binding”, “commercial cMet,” for “commercial EGFR,”, “recombinant cMet/HGFR” for “recombinant human EGFR/ErbB1/HER1”, “with c-terminal His-tag” for “with C-terminal His tag”, “Cy5-labeled c-MET.” for “Cy5-labeled EGFR.”, “produce Eu labeled” for “produce Eu-labeled”

[4] = target: T2, recombinant cMet/HGFR with c-terminal …; assay: competitive TR-FRET (Eu-amivantamab/Cy5-c-MET), EC50 ratio vs Reference Material; Ex. 2 Formulation 2 (50 mM histidine), T0, 25 C table
From the text: as §3
as §2, with “c-MET Binding” for “EGFR Binding”, “commercial cMet,” for “commercial EGFR,”, “recombinant cMet/HGFR” for “recombinant human EGFR/ErbB1/HER1”, “with c-terminal His-tag” for “with C-terminal His tag”, “Cy5-labeled c-MET.” for “Cy5-labeled EGFR.”, “produce Eu labeled” for “produce Eu-labeled”

[5] = target: T1, recombinant human EGFR/ErbB1/HER1 with …; assay: competitive TR-FRET (Eu-amivantamab/Cy5-EGFR), EC50 ratio vs Reference Material; Ex. 11 drug product, 3 months at 25 C
From the text: as §1, §2

[6] = target: T2, recombinant cMet/HGFR with c-terminal …; assay: competitive TR-FRET (Eu-amivantamab/Cy5-c-MET), EC50 ratio vs Reference Material; Ex. 11 drug product, 1 month at 40 C
From the text: as §3
as §2, with “c-MET Binding” for “EGFR Binding”, “commercial cMet,” for “commercial EGFR,”, “recombinant cMet/HGFR” for “recombinant human EGFR/ErbB1/HER1”, “with c-terminal His-tag” for “with C-terminal His tag”, “Cy5-labeled c-MET.” for “Cy5-labeled EGFR.”, “produce Eu labeled” for “produce Eu-labeled”

[7] = target: T2, recombinant cMet/HGFR with c-terminal …; assay: competitive TR-FRET (Eu-amivantamab/Cy5-c-MET), EC50 ratio vs Reference Material; Ex. 12 drug product with rHuPH20, 3 months at 5 C
From the text: as §3
as §2, with “c-MET Binding” for “EGFR Binding”, “commercial cMet,” for “commercial EGFR,”, “recombinant cMet/HGFR” for “recombinant human EGFR/ErbB1/HER1”, “with c-terminal His-tag” for “with C-terminal His tag”, “Cy5-labeled c-MET.” for “Cy5-labeled EGFR.”, “produce Eu labeled” for “produce Eu-labeled”

[8] = target: T1, recombinant human EGFR/ErbB1/HER1 with …; assay: competitive TR-FRET (Eu-amivantamab/Cy5-EGFR), EC50 ratio vs Reference Material; Ex. 2 Formulation 1 (10 mM histidine), T0, 25 C table
From the text: as §1, §2

B1: amivantamab (bispecific antibody, human IgG1, kappa)
heavy 1: not shown
light 1: not shown
heavy 2: not shown
light 2: DIQMTQSPSSVSASVGDRVTITCRASQGISNWLAWFQHKPGKAPKLLIYAASSLLSGVPSRFSGSGSGTDFTLTISSLQPEDFATYYCQQANSFPITFGQGTRLEIKRTVAAPSVFIFPPSDEQLKSGTASVVCLLNNFYPREAKVQWKVDNALQSGNSQESVTEQDSKDSTYSLSSTLTLSKADYEKHKVYACEVTHQGLSSPVTKSFNRGEC
notes: The samples tested were high concentration (160 mg/mL) formulations, fresh or stored or stressed; also called JNJ-61186372; bispecific EGFR-cMet antibody
[1]
  EGFR Binding % activity relative to RM: 103%
[2]
  cMET Binding activity relative to Reference Material (%): 101%
[3]
  cMET Binding activity relative to Reference Material (%): 91%
[4]
  cMET Binding % activity relative to RM: 102%
[5]
  EGFR Binding activity relative to Reference Material (%): 71%
[6]
  cMET Binding activity relative to Reference Material (%): 84%
[7]
  cMET Binding activity relative to Reference Material (%): 97%
[8]
  EGFR Binding % activity relative to RM: 103%
